Experimental data published in the RNAGym collection of RNA variant scans (doi:10.1093/nar/gkz1192).

B1: CPEB3 Ribozyme (parent)
chain: UAACAGGGGGCCACAGCAGAAGCGUUCACGUCGCAGCCCCUGUCAGAUUCUGGUGAAUCUGCGAAUUCUGCUGUAUAUCUC

Variants of: B1
Assay: self-cleavage, relative activity (ratio to wild type); higher = more cleavage; in vitro, sequencing
Summary of the method: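 Libraries of CPEB3 self-cleaving ribozyme mutants came from rounds of error-prone PCR and carried barcodes, which DNA sequencing matched to variants. In vitro transcription used T7 RNA polymerase at 37°C for 5 hours, with a further 15 min in DNase I before EDTA stopped the reaction; the ribozymes cleaved during both steps. The RNA was reverse transcribed with template switching and sequenced on Illumina. Relative activity is the cleaved/total read fraction of a variant divided by that of the unmutated ribozyme, averaged over three batches with at least 5 reads.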

Row | Variant | self-cleavage
1 | UAACAGGGGGCCACAGCAGAAGCGCUCACGUCGCAUCCCCUGUCAGAUUCUGGUGAAUCUGCGAAUUCUGCUGUAUAUCUC | 0.16
2 | UAACAGGGGGCCACAGCAGAAGCGCUCACGUCGCAACCCCUGUCAGAUUCUGGUGAAUCUGCGAAUUCUGCUGUAUAUCUC | 0.17
3 | UAACAGGGGGCCACAGCAGAAGCGCUCACGUCACAGCCCCUGUCAGAUUCUGGUGAAUCUGCGAAUUCUGCUGUAUAUCUC | 0.25
4 | UAACAGGGGGCCACAGCAGAAGCGCUCACGUCUCAGCCCCUGUCAGAUUCUGGUGAAUCUGCGAAUUCUGCUGUAUAUCUC | 0.15
5 | UAACAGGGGGCCACAGCAGAAGCGCUCACGUCCCAGCCCCUGUCAGAUUCUGGUGAAUCUGCGAAUUCUGCUGUAUAUCUC | 0.16
6 | UAACAGGGGGCCACAGCAGAAGCGCUCACGUCGCAGCCCCUGUCAGAUUCUGGUGAAUCUGCGAAUUAUGCUGUAUAUCUC | 0.24
7 | UAACAGGGGGCCACAGCAGAAGCGCUCACGUCGCAGCCCCUGUCAGAUUCUGGUGAAUCUGCGAAUUCUGAUGUAUAUCUC | 0.13
8 | UAACAGGGGGCCACAGCAGAAGCGCUCACGUCGCAGCCCCUGUCAGAUUCUGGUGAAUCUGCGAAUUCUGUUGUAUAUCUC | 0.1
9 | UAACAGGGGGCCACAGCAGAAGCGCUCACGUCGCAGCCCCUGUCAGAUUCUGGUGAAUCUGCGAAUUCUGGUGUAUAUCUC | 0.1
10 | UAACAGGGGGCCACAGCAGAAGCGCUCACGUCGCAGCCCCUGUCAGAUUCUCGUGAAUCUGCGAAUUCUGCUGUAUAUCUC | 0.58
11 | UAACAGGGGGCCACAGCAGAAGCGCUCACGUCGCAGCCCCUGUCAGAUUCUAGUGAAUCUGCGAAUUCUGCUGUAUAUCUC | 0.26
12 | UAACAGGGGGCCACAGCAGAAGCGCUCACGUCGCAGCCCCUGUCAGAUUCUUGUGAAUCUGCGAAUUCUGCUGUAUAUCUC | 0.29
13 | UAACAGGGGGCCACAGCAGAAGCGCUCACGUCGCAGCCCCUCUCAGAUUCUGGUGAAUCUGCGAAUUCUGCUGUAUAUCUC | 0.33
14 | UAACAGGGGGCCACAGCAGAAGCGCUCACGUCGCAGCCCCUUUCAGAUUCUGGUGAAUCUGCGAAUUCUGCUGUAUAUCUC | 0.5
15 | UAACAGGGGGCCACAGCAGAAGCGCUCACGUCGCAGCCCCUGUCAGAUUCUGGUAAAUCUGCGAAUUCUGCUGUAUAUCUC | 0.28
16 | UAACAGGGGGCCACAGCAGAAGCGCUCACGUCGCAGCCCCUGUCAGAUUCUGGUCAAUCUGCGAAUUCUGCUGUAUAUCUC | 0.33
17 | UAACAGGGGGCCACAGCAGAAGCGCUCACGUCGCAGCCCCUGUCAGAUUCUGCUGAAUCUGCGAAUUCUGCUGUAUAUCUC | 0.15

Row | Variant | self-cleavage
18 | UAACAGGGGGCCACAGCAGAAGCGCUCACGUCGCAGCCCCUGUCAGAUUCUGAUGAAUCUGCGAAUUCUGCUGUAUAUCUC | 0.43
19 | UAACAGGGGGCCACAGCAGAAGCGCUCACGUCGCAGCCCCUGUCAGAUUCUGGUGAAUCUGGGAAUUCUGCUGUAUAUCUC | 0.18
20 | UAACAGGGGGCCACAGCAGAAGCGCUCACGUCGCAGCCCCUGUCAGAUUCUGGUGAAUCUGUGAAUUCUGCUGUAUAUCUC | 0.11
21 | UAACAGGGGGCCACAGCAGAAGCGCUCACGUCGCAGCCCCUGUCAGAUUCUGGUGAAUUUGCGAAUUCUGCUGUAUAUCUC | 0.28
22 | UAACAGGGGGCCACAGCAGAAGCGCUCACGUCGCAGCCCCUGUCAGAUUCUGGUGAAUAUGCGAAUUCUGCUGUAUAUCUC | 0.16
23 | UAACAGGGGGCCACAGCAGAAGCGCUCACGUCGCAGCCCCUGUCAGAUUCUGGUGAAUCUGCGAAUUCUGCUGUAUAUCUG | 0.22
24 | UAACAGGGGGCCACAGCAGAAGCGCUCACGUCGCAGCCCCUGUCAGAUUCUGGUGAAUCUGCGAAUUCUGCUGUAUAUCUA | 0.23
25 | UAACAGGGGGCCACAGCAGAAGCGCUCACGUCGCAGCCCCUGUCAGAUUCUGGUGAAUCUGCGAAUUCUGCUGUAUAUCUU | 0.15
26 | UAACAGGGGGCCACAGCAGAAGCGCUCACGUCGCAGCCCCUGUCAGAUUCUGGUGAAUCUGCGAAUUCUGCUGUAUAUGUC | 0.26
27 | UAACAGGGGGCCACAGCAGAAGCGCUCACGUCGCAGCCCCUGUCAGAUUCUGGUGAAUCUGCGAAUUCUGCUGUAUAUUUC | 0.34
28 | UAACAGGGGGCCACAGCAGAAGCGCUCACGUCGCAGCCCCUGUCAGAUUCUGGUGAAUCUGCGAAUUCUGCUGUAUAUAUC | 0.35
29 | UAACAGGGGGCCACAGCAGAAGCGCUCACAUCGCAGCCCCUGUCAGAUUCUGGUGAAUCUGCGAAUUCUGCUGUAUAUCUC | 0.33
30 | UAACAGGGGGCCACAGCAGAAGCGCUCACCUCGCAGCCCCUGUCAGAUUCUGGUGAAUCUGCGAAUUCUGCUGUAUAUCUC | 0.26
31 | UAACAGGGGGCCACAGCAGAAGCGCUCACUUCGCAGCCCCUGUCAGAUUCUGGUGAAUCUGCGAAUUCUGCUGUAUAUCUC | 0.16
32 | UAACAGGGGGCCACAGCAGAAGCGCUCACGUCGCAGCCCCUGUCAAAUUCUGGUGAAUCUGCGAAUUCUGCUGUAUAUCUC | 0.28
33 | UAACAGGGGGCCACAGCAGAAGCGCUCACGUCGCAGCCCCUGUCACAUUCUGGUGAAUCUGCGAAUUCUGCUGUAUAUCUC | 0
34 | UAACAGGGGGCCACAGCAGAAGCGCUCACGUCGCAGCCCCUGUCAUAUUCUGGUGAAUCUGCGAAUUCUGCUGUAUAUCUC | 0.2
